Test results taken from article PMC6318248, “Oligomerisation of Synaptobrevin-2 Studied by Native Mass Spectrometry and Chemical Cross-Linking” (Journal of the American Society for Mass Spectrometry, 2018).
“And” between values parts separate entries of the source, which are not always exact repeats. Identical values can stand only once. Like-named read-outs stand apart in the source and are kept apart here. Each block holds one molecule with its values, some of them ahead of it.

Experiments:
[1] = biological target: Synaptobrevin-2, full-length protein Syb(1-116) (Rattus norvegicus) (UniProt P63045); experiment: cross-linking; Syb(1-116) in solution (chaps), 10 μM and 100 μM protein, BS3 (83-166 μM at 100 μM protein), 1 h at 25 °C; Coomassie gel and western blot; cross-linked peptides by LC-MS/MS
[2] = biological target: Synaptobrevin-2, full-length protein Syb(1-116) (Rattus norvegicus) (UniProt P63045); experiment: as above; remark: listed apart in the source
[3] = biological target: the molecule itself; experiment: native MS; Syb(49-96) at 10 μM, 200 mM ammonium acetate pH 7.0
[4] = biological target: the molecule itself; experiment: cross-linking; 650 μM Syb(49-96), 180 and 250 μM BS3, 1 h at 25 °C; Coomassie gel and western blot; cross-linked peptides by LC-MS/MS
[5] = biological target: the molecule itself; experiment: ion mobility mass spectrometry; Syb(49-96), nESI, home-built drift-tube instrument, helium buffer gas, soft conditions; limited transmission for high m/z

stoichiometry N [1]: 2 and < 5 | stoichiometry N [2]: < 6
Molecule: Synaptobrevin-2, full-length protein Syb(1-116) (from UniProt P63045 1-116) (natural protein)

B1: Synaptobrevin-2, C-terminal fragment of the cytosolic domain Syb(49-96) (domain or fragment, Rattus norvegicus, UniProt P63045 49-96, looked up)
chain: NVDKVLERDQKLSELDDRADALQAGASQFETSAAKLKRKYWWKNLKMM
notes: Synaptobrevin-2, Rattus norvegicus, UniProt P63045, residues 49-96 (C-terminal half of the SNARE motif and the juxtamembrane domain); Residual residues of the thrombin cleavage site stay at the N-terminus (measured mass 6045 Da); Plasmid was a gift from R. Jahn; source: E. coli BL21 (DE3), purified (Ni2+ IMAC, thrombin cleavage, reversed IMAC, SEC without detergent); not shown: His-tag, …
stoichiometry N [3]: 2 | stoichiometry N [4]: ≤ 10 | stoichiometry N [5]: ≤ 3
